Biological target: T1, CD123-Fc (Sino Biological) (human, UniProt P26951 19-305)
T1 construct: Bought reagent; not shown: Fc of the bought fusion (detected with anti-human Fc, captured on AHC sensor)
T1 sequence: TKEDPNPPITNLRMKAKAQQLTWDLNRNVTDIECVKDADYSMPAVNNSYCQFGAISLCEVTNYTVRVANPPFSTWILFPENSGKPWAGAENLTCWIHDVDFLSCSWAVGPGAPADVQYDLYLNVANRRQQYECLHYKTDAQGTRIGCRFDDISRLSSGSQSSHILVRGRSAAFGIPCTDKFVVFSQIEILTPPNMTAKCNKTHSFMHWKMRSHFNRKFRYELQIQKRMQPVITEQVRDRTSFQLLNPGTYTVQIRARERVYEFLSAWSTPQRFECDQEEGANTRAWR
Assay: ELISA: MBP fusion captured on anti-MBP antibody, detected with CD123-Fc + anti-human Fc HRP
Description: Parent and mutated variant D domains were expressed as MBP fusions in E. coli (T7 Express, New England Biolabs) by either IPTG (isopropylthio-(3-galactoside) induction for 4 hours at 37° C. in Luria broth containing antibiotics and 0.2% glucose or through auto-induction for 16 hours at 30° C. using MagicMedia (Life Technologies). Post induction, cells were pelleted, washed and resuspended in “leak-out buffer” comprising 200 mM Tris pH 7.5 and 20 mM EDTA. After incubation at 30° C. for 16 hours, supernatant containing MBP fusion proteins were assayed by ELISA for both target binding and expression. Supernatants were added to 96-well Immulon 4HBX microtiter plates coated with anti-MBP polyclonal antibody (Abcam) at 0.0032 ug/ml. Followed by washing, bound MBP fusion proteins were detected either with CD123-Fc (Sino Biological)+anti-human Fc HRP (Abcam) to assess CD123 binding, or with anti-MBP-HRP (New England Biolabs) to assess MBP fusion protein expression.

B1: 5B7L D domain as MBP fusion (designed binder, not shown: large carriers)
chain: MGSWIEFNMRLDAIYERLVALGGSEAELAAFEKEIAAFESELQAYKGKGNPEVEWLRKVAANIRLELQAYRHN
  binding result: binds

From patent US20240124605A1 (published 2024)
